Experimental data: paper PMC5380656 (The Journal of Allergy and Clinical Immunology, 2017)

What was measured:
[1] = target: T1, staphylococcal enterotoxin D (Staphylococcus aureus, strain , UniProt P20723); test: ELISA
T1 construct: source: bought: Toxin Technology

[2] = target: T2, staphylococcal enterotoxin C1 (Staphylococcus aureus, strain , UniProt P01553); test: ELISA; settings: both partners purified
T2 construct: source: bought: Toxin Technology

[3] = target: T3, staphylococcal enterotoxin A (Staphylococcus aureus, strain , UniProt P0A0L2); test: ELISA
T3 construct: source: bought: Toxin Technology

[4] = target: T4, staphylococcal enterotoxin E (Staphylococcus aureus, strain , UniProt P12993); test: ELISA
T4 construct: source: bought: Toxin Technology

[5] = target: biotin-labeled staphylococcal enterotoxin E (Staphylococcus aureus, strain , UniProt P12993, biotin (site not stated)); test: SPR; Biacore T200; […]; 25°C; […]; settings: both partners purified
[6] = target: biotin-labeled staphylococcal enterotoxin A (Staphylococcus aureus, strain , UniProt P0A0L2, biotin (site not stated)); test: SPR; Biacore T200; […]; 25°C; […]; settings: both partners purified

B1: anti-SED antibody HPK-014_1A4, recombinant IgG1 (antibody, V domains shown)
VH: EVQLLESGGGLVQPGGSLRLSCAASGFNFDSYAMSWVRQAPGKGLEWVSSISSSGGATYYADSVKGRSTISRDNSKNTVSLQMNSLRAEDTAVYYCAKKRRYDAVTGYLFDMWGQGTMVTVSS
VL: DIVMTQSPFSLAVSLGERATMNCKSSQSVLHSSNNENYLAWYQQKPGQPPKLLIYWASTRESGVPDRFSGSGSGTDFTLTISSLQAEDVAVYYCQQFYSPAPYTFGQGTKLEIK
notes: source: HEK 293T, transfected, culture supernatant
B1: binds ([1]; one partner purified).

B2: anti-SED antibody HPK-018_2D6, recombinant IgG1 (antibody, V domains shown)
VH: QVQLVQSGGGLVQPGRSLRLSCRASGFTFGEYAMSWVRQAPGKGVEWVSFIRSRTYGATTEYAASVKGRFTISRDDSESIVYLQMNSLKTEDTAVYYCTTYCSSTSCQIDYWGQGTLVTVSS
VL: QSALTQPPSASALLGASIKLTCTLSSEHSTYIIEWFQQRPGRSPQYIMDVKSDGSYTKGDGIPDRFMGSSSGADRYLTLSNLQSDDEAEYYCGESHTIDGQVGYVFGTGTKVTVL
notes: as for B1
B2: binds ([1]; one partner purified).

B3: anti-SEE antibody HPK-016_203, recombinant IgG1 (antibody, V domains shown)
VH: EVQLVESGAEVKKPGESLKISCKGSGNTFTNYWIAWVRQRPGKGLEWMGIIYPGDSDTRYSLSFQGQVTISVDKSINTAYLQWSSLRASDTAIYFCVRHCSGGRCSSAPLDSWGQGTLVTVSS
VL: NFMLTQPPSVSESPGKTVTISCTRSSGSIGTYYVHWYQQRPGSAPTTLIYDDSHRPSGVPDRFSGSVDSSSNSASLIISGLKTEDEADYYCLSHDTTNFVFGGGTKLTVL
notes: also called 203 IgG1
B3: binds [2]; no binding ([1]; both partners purified); no binding ([3]; both partners purified). B3: binds ([4]; one partner purified); binds [5].

B4: anti-SEA antibody HPK-018_1B6, recombinant IgG1 (antibody, V domains shown)
VH: EVQLVESGGEVKKPGASVKVSCKTSGYTFSSYYMHWVRQAPGQGLEWMGVINPSGGSIKYAQKFQGRVTMTRDTSTTTIYMDLSSLRSDDTAVYYCAYWGADGFDIWGQGTMVTVSS
VL: QSVLTQPPSASGTPGQRVTISCSGSSSNIGSNSVNWYQQVPGTAPKLLTYGNNQRRSGVPDRFSGSKSGTSASLAISGLQSEDEADYSCAVWDDSLSAWVFGGGTKLTVL
notes: as for B1
B4: binds ([3]; one partner purified).

B5: anti-SEA antibody 1F3, recombinant IgG1 (antibody, V domains shown)
VH: QVQLVESGTDVKKPGSSVKVSCKTSGGTFGDHGITWVRQAPEKGLEYVGRIIPNPGTAYHAQKFQGRVTITADESTGTAYLELSRLSFDDTAVYYCARGMTGYVGAYDYWGQGTLVTVSS
VL: QSVLTQPPSASGTPGQRVSISCSGSSSNIGSNSVSWYQLLPGTAPKLLIYFSHQRPSGVPDRFSASKSGTSASLAISDLQPEDEADYYCASWDDRLNGPVFGGGTKLTVL
notes: also called 1F3 IgG1; HPK-016_1F3
B5: binds ([3]; both partners purified); no binding ([4]; both partners purified); binds [6].

B6: anti-SEE antibody HPK-014_1G2, recombinant IgG1 (antibody, V domains shown)
VH: QVQLVESGGGVVPPGGSLRLSCATSGFKFNDYDMHWVRQAPGKGLEWVASIRYHGNKDYYADSVKGRFTISRDNSKNTLSLQMNSLRPEDTAIFYCARDRAQGIVAAAGTSFGYWGQGTLVTVSS
VL: SYELTQPPSVSVSPGQTARITCSADALPKQYVYWYQQKSGQAPVLVMYKDSERPSGIPERFSGSTSGSTVMLTISGVQEEDEAVYYCQSGDTSGFDPDVAFGGGTKLTVL
notes: also called 1G2 IgG1
B6: binds [2]; no binding ([1]; both partners purified); no binding ([3]; both partners purified). B6: binds ([4]; one partner purified); binds [5].

B7: anti-SEE antibody HPK-014_1G2, Fab (Fab, V domains shown)
VH: B6 VH
VL: B6 VL
notes: source: Expi293, purified (LambdaFabSelect agarose)
B7: binds ([4]; both partners purified).

B8: anti-SEE antibody HPK-014_1G2, recombinant IgE (antibody, V domains shown)
VH: B6 VH
VL: B6 VL
notes: also called 1G2 IgE; anti-SEE IgE 1G2
B8: binds ([4]; both partners purified).
